In patent publication US20030236190A1 (published 2003):
Positions of bridges follow the written chain, without caps; N, C: chain ends. Chains are numbered I, II in the order given. No end group written: not given here.

Each binder was assayed against T1, human insulin receptor (HIR) (human, UniProt P06213 28-1382, limits assumed) (assay: 125I-insulin displacement, solubilised HIR).
T1 construct: Detergent-solubilised receptor; The natural receptor is an alpha2-beta2 heterotetramer cleaved from one precursor

Binder | Kd [nM]
AAAAFYDWFAAAAAKK [S168] | 3800
SSNFYQALMLLS [S129] | 2900
S172 (N-terminal Lig coupled to linker 14, dimer, N-N) peptide 1: XFHENFYDWFVRQVSKK peptide 2: XFHENFYDWFVRQVSKK | 4800
HPSTNQMLMKLFK [S123] | 16000
FHENFYDWFVRQASKK [S106] | 420
PLAELWAYFEHSEQGRSSAH [S174] | 16000
FHENFYDWFVRQVSK (also called D117/H2C) [S158] | 810
HPTSKEIYAKLLK [S122] | 9300
EHWNTVDPFYQYFSELLRESG [S178] | 130
NSFYEALRMLSSK [S121] | 3100
HETFYSMIRSLAK [S117] | 2700
EFHENFYDWFVRQVSEE [S115] | 650
EHWNTVDPFYFTLFEWLRESG [S177] | 2700
QSDSGTVHDRFYGWFRDTWAS [S179] | 540
HDPFYSMMKSLLK [S120] | 2000
FHENFYDWFVRQVAKK [S105] | 310
SDGFYNAIELLS [S118] | 2400

Continued, values first:

Kd [nM] | Binder
610 | FAENFYDWFVRQVSKK [S112]
1800 | SLNFYDALQLLAKK [S119]
1000 | FHENFYDWFVRAVSKK [S107]
23000 | HPPLSELKLFLIKK [S124]
750 | FHENFYDWFVAQVSKK [S108]
700 | S170 (bridge I:1-II:1; also: homodimer, N-N, linked at cysteines, type of link not given here, dimer, N-N; also called 3170 (so in the source)) peptide 1: CGFHENFYDWFVRQVSKK peptide 2: CGFHENFYDWFVRQVSKK
470 | NGVERAGTGDNFYDWFVAQLH [S176]
580 | S169 (N-terminal Lig coupled to linker 12, dimer, N-N) peptide 1: XFHENFYDWFVRQVSKK peptide 2: XFHENFYDWFVRQVSKK
590 | AHENFYDWFVRQVSKK [S113]
2900 | CGFHENFYDWFVRQVSKK (also called 3171 (so in the source)) [S171]
